{
  "source": "the DeepSol protein solubility set",
  "data": [
    {"experiment": "soluble on expression in E. coli; label from the status in PepcDB or PDB records", "values": [
      {"sequence": "MPSLLSSRIRNAEFAKKIVTDPAKLVPYFKNGDYVGWSGFTGVGYPKMIPNALARHVEENNLQGKLRFKLFVGASGGADTECKWAELNMIERRCPHQVGKPISKGINSGRIQFFDKHLSMFPQDLLYGYYTRNRESNTIDTAIIEATAITEDGGIVPGASVGASPELMQLAEKIIIEVNTAIPSFEGLHDIVEIPNPPHRTPININRVDDRIGKPYIKVDPKKVIGIVEADYGDITCANSPQDETSQAIAGHLVDFFHHEVSVGRLPKNLHPLQSGIGNIANAIIGGLAHSPFKDLEVWTEVLQDTFLPLFDSEKLRFATATSTRFSPQGFEKFYSNYDYYKERILLRPQVISNHPEIIRRLGCIAMNTPVEADIYAHANSTNVLGSRMLNGLGGSADFLRNAKLSIMHTPSVRPSKKDPTGITCIVPMATHVDQTEHDLDILVTEQGLADLRGLSPTERAREVIDKCAHPDYKPLLREYFDIAENYCLARGAGHEPHILANAFKMQLNLLEKGTMKIDHW", "soluble on expression in E. coli": "soluble"},
      {"sequence": "MSLSTDDTLWREFLQVWPLERLREMTLAEYTTAGDKDCFVYWLEFRLVDYGSIAGGSAFKFAIFSRKETGAREGDTSLAYDDRYGWYRRFGTSPEEAFQTIRGHVVAVAEAARDGRLDEIDNSPLGAAYRWKIAFHYQPLRNPSTPCVYVRKPLLHFLGLSAADTTTPQSELYQALARLRQADESIFVFSERLWKDWVADTPFVVKLSEGAIKHGYLPVNLISAPFPETMYGGKTPNEAADVAHFRTDTGLEFDTDLRVSSPGSARLRHRLGGYFEDIGAAAGDLITLTQDGDGTYLLSSKLAVHAIGPTASAATITARASVKEAAAVRPPLNQILFGPPGTGKTYEAIEKALEILDPSFLLQLGDDESNERRRALKRRYDELAKEGLVQFVTFHQSFSYENFVEGLSASSDPDTKQVRYEVEDGVFKELCESARTRLVRRSDDAPLELSGRRIWKLSLGDSITEGHIFEECMEKGLALMGFGNNADFSQCQSREDIQKMFAASGEPLSLGAYPITAIKTFVCQMKLGDLIVVSEGNLKFRAIGEITGDYQLLPRDSDTYSQARPVRWLRGYKPALPYGALMENRFSQMTVYELRAGSIDHDKFRELLKSECIATGADRPHVLIIDEINRGNVSRIFGELITLIEPSKRSGAAEALEVLLPYSKDPFSVPDNVYLIGTMNTADRSLAGLDIALRRRFDFVEMAPRPDKLTGVKVAEIDISAVLETMNRRIEVLLDREHRLGHAYFMSLENSNDLSRLSNIFRQQIIPLLQEYFFEDWQRIAWILNDHRKDERFRFIVPAPYSVDSLFGDTGQVAQDSKAWRMNEEAFHKPQSYLGIVGDGKEGHHHHHH", "soluble on expression in E. coli": "not soluble"},
      {"sequence": "AFTMEIPPTHYAASRAASVAENCINYQQGTPHKLFLVQTVQQASKEDIPGRGHKYHLKFSVEEIIQKQVTVNCTAEVLYPQMGQGSAPEVNFTFEGEIGKNPDEEDNTFYQSLMSLKRPLEAQDIPDNFGNVSPQMKPVQHLAWVACGYVMWQNSTEDTWYKMLKIQTVKQVQRNDDFIELDYTILLHDIASQEIIPWQMQVLWHPQYGTKVKHNSRLPKEGQAE", "soluble on expression in E. coli": "soluble"},
      {"sequence": "LEPRHAMLLRCRLPGGVITTKQWQAIDKFAGENTIYGSIRLTNRQTFQFHGILKKNVKPVHQMLHSVGLDALATANDMNRNVLCTSNPYESQLHAEAYEWAKKISEHLLPRTRAYAEIWLDQEKVATTDEEPILGQTYLPRKFKTTVVIPPQNDIDLHANDMNFVAIAENGKLVGFNLLVGGGLSIEHGNKKTYARTASEFGYLPLEHTLAVAEAVVTTQRDWGNRTDRKNAKTKYTLERVGVETFKAEVERRAGIKFEPIRPYEFTGRGDRIGWVKGIDDNWHLTLFIENGRILDYPARPLKTGLLEIAKIHKGDFRITANQNLIIAGVPESEKAKIEKIAKESGLMNAVTPQRENSMACVSFPTCPLAMAEAERFLPSFIDNIDNLMAKHGVSDEHIVMRVTGCPNGCGRAMLAEVGLVGKAPGRYNLHLGGNRIGTRIPRMYKENITEPEILASLDELIGRWAKEREAGEGFGDFTVRAGIIRPVLDPARDLWD", "soluble on expression in E. coli": "soluble"},
      {"sequence": "MANPAAAAGPSGGARSFLQAVSTVTEEAPSPLRVVQMEGLAVLKIIKHCEEFAPALVTGQLLGLDVGSVLEVTNCFPFPMREDDEEADADGANYQLEMMRCLREVNVDNNTVGWYQSCLLGSFQTVELIETFMNYQENIRRCVCIVYDPSRSNQGVLALKALKLTDSFMDLYRNNGLTGEKLREKKLSWVDIFEEIPIKVSNSALVSAFMTELEPESPVSQCDFDRLKLSTAPFMERNLEFLIGCMDDLSSEQNKFQYYYRNVSRQQSQQQAWLQKRRQENMARKAAGEEPLPEEDPSNPIFKPIPEPSRLEGYLVTNQISSYCNHINGVAGQNFNRLYLMKALQED", "soluble on expression in E. coli": "soluble"},
      {"sequence": "MGSDKIHHHHHHMIGAWCFLDHAGPVTFPAGNGLDVGPHPHIGLQTFTWMIEGTMMHTDSLGSKQLIRPKQVNLMTAGHGISHTEVAPDTETQMHAAQLWIALPDHKRNMDPKFEHYPDLPVVEKDGLEFTVLVGEYLETTSPVVVHTPLVGVDLIATQDTKTRIPLNPEFEYGFMALDGVAHVNGHELTADNMVVLDTGLNEIEIEVKKGNRVLLIGGEPFETPILLWWNFVARTMDDLKEAREQWVNHDVRFGEIPDYVGARLEAPVLPDQMRASK", "soluble on expression in E. coli": "not soluble"},
      {"sequence": "MGSDKIHHHHHHMVLPSMNKSVEAISNNHLQQPNKFPLINGLADVRDYYVANCLLFKLNKGSLRIENEFGEFIERSAPCLFLLEKDQTITLSMSEIEGHIDFSSLEVSYDLMQKFYKVFYSTRNYNDRELSLKTKPKYFFHADLLPGMSDTFDSILHGVACPRVCSNVSIDDHDYSYFSLMYLISAFVRKPGGFDFLERAIKITTKEKVYNIIISDLTRKWSQAEVAGKLFMSVSSLKRKLAAEEVSFSKIYLDARMNQAIKLLRMGAGNISQVATMCGYDTPSYFIAIFKRHFKITPLSFMRTMNH", "soluble on expression in E. coli": "not soluble"},
      {"sequence": "MGSDKIHHHHHHMRNPKPQEWKTEDYSQKKIADYKAFNFVDGEGVRNSLYVSGCLFACEGCFNKAVQNFNYGTPFTESLMNQIIEDLSHDYVQGLTLLGGEPFLNTDVCLSVVKRVRETFGSAKDIWSWSGYTFEELLLETPDKLELLHSIDILVDGRFELAKRNLNLQFRGSSNQRIIDVPKSLAAGKAVIWEKCHDAETSYEQIKKSI", "soluble on expression in E. coli": "not soluble"},
      {"sequence": "SSFQGPLDATVVVNLQSPTLEEKNEFPEDLRTELMQTLGSYGTIVLVRINQGQMLVTFADSHSALSVLDVDGMKVKGRAVKI", "soluble on expression in E. coli": "soluble"},
      {"sequence": "GIYQHFSIEDRPFLDKGMEWIKKVEDSYAPFLTPFINPHQEKLLKILAKTYGLACSSSGEFVSSEYVRVLLYPDYFQPEFSDFEISLQEIVYSNKFEYLTHAKILGTVINQLGIERKLFGDILVDEERAQIMINQQFLLLFQDGLKKIGRIPVSLEERPFTEKID", "soluble on expression in E. coli": "soluble"},
      {"sequence": "MADSAELKQMVMSLRVSELQVLLGYAGRNKHGRKHELLTKALHLLKAGCSPAVQMKIKELYRRRF", "soluble on expression in E. coli": "soluble"},
      {"sequence": "RDVVGVGFGPANLALAIAIEEHNAECPPRERISAQFFEKQDRFGWHPGMLLDGATMQIAFPKDLVTFRNPRSAFTFFNYLFDQGRLVDFVNHQTFFPTRHEFHDYLQWAARRVDADVRYGTAVETVRGIRGDDGVIDRFEVRTADGSTVIARNVVMGAGLRERIPEWANPSARCFHNHQFLFRLGEMPAPVHHRFVVLGAGQSAAEIVQYLHGN", "soluble on expression in E. coli": "not soluble"},
      {"sequence": "MNTLFMHCRPGFEGEVCSEIADLAARLDVSGYAKARPDTACAEFICTEADGAERLMNGQRFDTLIFPRQWARGLFLDLPETDRISVILAQLSTFPTCGSLWLEVVDTNDGKELSNFCKKFEAPLRKALTQAGKLVDDPRKPRLLLTFKSGREVFLGLAEADNSAMWPMGIPRLKFPREAPSRSTLKLEEAWHHFIPRDQWDERLSGDMTGVDLGAAPGGWTYQLVRRGMLVTAIDNGPMAESLMDTGLVQHLMADGFTYKPRHPVDWMVCDIVEKPARNAALLETWLGEGLCREAVVNLKLPMKQRYAEVRRLLDRIEEGFQARGVRVSIGCKQLYHDREEVTCHLRRLDVAKAARK", "soluble on expression in E. coli": "not soluble"},
      {"sequence": "MSSLWLDQARGSEPACPALQGATRADVCIVGGGYTGLWTALQLREQSPGLDIVLLEAQECGAGASGRNGGFMLSWAAKFETLLKVCGTDEALRLLGESERIAADVAGYLKRHGVDAQLRQDGWLWTASNAAQVDSWMPCIELLARHGQQAFVALPADEVRRLSGSAAHLAGVLSRSSATVHPGMYVRGLRRIALAKGIRIYEHTPMRSLRARPQPTVATARGEVRAAKVVLAMNAWSTRFRELNKGVVVVGSDLVATAPHPEALEKIGLTSGVAISDSRLFTNYYRNTCAGEMVFGRGGGDFAFNGAVGRLYEGPSRFAREVAAILHRFYPALAPLGIVRSWSGPIDRSMDGLPCFGHLGGHPDIVYGYGYSGNGVGPTYLGGKFLASMVLENDDAWRHSALARGLRGRFPPEPFRYVGSRVVKAALVRKEAAEDQGQAPARLDTMLAGLAPGGLVPVARKEKALEHHHHHH", "soluble on expression in E. coli": "not soluble"},
      {"sequence": "MDEQEIQRLVEEVSLQYFGMPFLHKAMFNSRLRTTGGRYLLNTHNIELNYRYYEMYGKEELVGIVKHELCHYHLHITGRGYKHRDKDFRELLKAVDAPRFCKRMINEEKGKKVYMYECMECSLQYVRRRQINTKRYVCGKCKGKLILIKKTSLEHHHHHH", "soluble on expression in E. coli": "not soluble"},
      {"sequence": "MGSDKIHHHHHHMTDVTQGRIPHAVYIDPGLPEYRDNPLIASLPPIFDTKQVITKLRLKPLYDSAERNLDGRLRVHAIARLLNRFFQPLSHHLELEQKISLILRQGYLGRNPEQGSYHLHLQNGFKRIQEEDLDAFVFDQARSSANSLSLFGCSGCGKSVTINRILSVYEQAIFHPEHNITQLTYLKIECPVDGDLDELCLSFFNEVDRVLHTQYSTSHGRKKLGTKRLMASMCQIANLHALGVLIIDEVQNLNEAKSGGAEKMHNFFVSLVNTIGVPVIQVGTHRARKFFQRTFRAARRITGFGSLLWDRLPNDHQWRQLLKLLWQYQWLRSAEPINDELVGTMYDLTQGVMDIVVKLYVLAQVRAIVTGMERITSELLKQVYHDEFKPVHPMLAALRSNNPGLLEQYDDLLMPEIEARMLSMVSSLEQADTYVDRPEISTDKSKKLLVLLSQMDIPEDIAIPLVDRVISRHPELSVAALMHKVTEYTADVTAEPPKINRIKRTQWLELPTNDLRYLYASSDKNNVYQLFKNQGLIYDLKSVSNRTG", "soluble on expression in E. coli": "not soluble"},
      {"sequence": "MKCVVCGRNEAVEHGMCSSCIYDNTNVENIGPVSLVFCPKCGSIRIGKKWYRDSYGNKLLPMLLDEVKCSDVNARISGDEKGIFFDEKNKQIILPVTIKRSNMKDKIQNVAIPYSVTYISCPTCNKITGSYFEATIQLRTVSTKYDNILESVLESIEAIVEKRKKEDAESFISKVEKKPEGIDIYLGKRTDGDVVSSFVLDHFFSSIIVTKTLAGVKDGKKFFRFTYSLRILDAKEGSLEHHHHHH", "soluble on expression in E. coli": "not soluble"},
      {"sequence": "KKIKVYIELDLGGPITVGFPTHISDGISLLGSTNIFDDISEAYFTPKDEEILKRDPDIIIYEPKRLTDYEKERFYSILRKRDLFQLLNKRLIFTKGDYLAHMGPSFITDVLIWLKSVL", "soluble on expression in E. coli": "not soluble"},
      {"sequence": "MAQEKMDLDFEADTSEGATLRRSNSAPLIHVLSDLSQVFEPYPLRTGRTSTAIMSHHSLEEGLDMMNRETTNEREAQAGMQISQSWDESLSLSGSDFDKPEKLYSPKRIDFTPVSPAPSPTRGFGKQCLSPSLQMFVSSSGMPPSPVLNPRHFSRRSQSPVKCIRPSVLGPLKRKGEMEMESQPKRPFQGTTSMLSTNPAQLSDFSSCSDILDGSSISSGLSSDSLATGSAPAESPVACSNSCSPFILMDDLSPK", "soluble on expression in E. coli": "not soluble"}
    ]}
  ]
}
